Measurements: publication PMC8530329 (2021)

Legend:
[1] = molecular target: T1, SARS-CoV-2 RBD-Flag-His protein (SARS-CoV-2, UniProt P0DTC2 319-541); experiment: BLI
[2] = molecular target: T1, SARS-CoV-2 RBD-Flag-His protein; experiment: BLI; remark: listed apart in the source

B1: RBD-chAb-45 (antibody, V domains shown)
VH: EVQLQQSGPELVKPGASVKISCKTSGYTFTEYTIYWVKQSLGKSLEWIGGNNPNNDDTTYKQFFKGKATLTVDKSSSTAYMELRSLTSEDSAVYYCARDGYPYYYALDFWGQGTSVTVSS
VL: DIVMTQSQKFMSTSVGDRVSVTCKSSQNVGTNVAWYQQKPGQSPKALIYSASYRYSGVPDHFTGSGSGTDFTLTISNVQSADLAEYFCQQYNNYPWTFGGGTKLEIK
With B1 the koff [1] was 0.000282 s⁻¹ and the Kd [2] was 0.282 nM.
